Test results reported in US20230265192A1 (GIGAGEN, published 2023).

Legend:
[1] = biological target: T1, His-tagged cynomolgus CTLA-4 (CT4-C5227; Acro Biosystems) (cynomolgus, UniProt G7PL88 36-161); assay: BLI (Octet)
T1 construct: also called soluble cynomolgus CTLA-4; cyno CTLA-4
Description: (§1) The binding specificity and affinity of each full-length antibody towards CTLA-4 were determined using biolayer interferometry (BLI) and/or surface plasmon resonance (SPR). Anti-cyno CTLA-4 and anti-mouse CTLA-4 affinities were tested using ForteBio (BLI). Anti-human CTLA-4 affinities were measured using Carterra (SPR).
(§2) For BLI, antibodies were loaded onto an Anti-Human IgG Fc (AHC) biosensor using the Octet Red96 system (ForteBio). Loaded biosensors were dipped into antigen dilutions beginning at 300 nM, with 6 serial dilutions at 1:3. Kinetic analysis was performed using a 1:1 binding model and global fitting.

[2] = biological target: mouse CTLA-4 (mouse, UniProt P09793 36-161, limits assumed); assay: BLI (Octet)
Description: as §1, §2

[3] = biological target: T2, His-tagged human CTLA-4 (CT4-H5229; Acro Biosystems) (human, UniProt P16410 36-161); assay: SPR (Carterra)
T2 construct: bought soluble protein; also called soluble human CTLA-4; recombinant human CTLA-4; not shown: His tag
Description: (§3) Then, goat anti-Human IgG Fc (Southern Biotech 2047-01) was coupled for 10 minutes at […] in 10 mM Sodim Acetate pH 4.5 (Carterra Inc.). The surface was then deactivated with 1 M ethanolamine pH 8.5 (Carterra Inc.). Running buffer used for the lawn immobilization was HBS-EPC (10 mM HEPES, 150 mM NaCl, 3 mM EDTA, 0.05% Tween 20, pH 7.4; Teknova).
(§4) The sensor chip was then transferred to a continuous flow microspotter (CFM; Carterra Inc.) for array capturing. The mAb supernatants were diluted 50-fold ([…] final concentration) into HBS-EPC with 1 mg/mL BSA. The samples were each captured twice with 15-minute and 4-minute capture steps on the first and second prints, respectively, to create multiple densities, using a […] flow rate. The running buffer in the CFM was also HBS-EPC.
(§5) Next, the sensor chip was loaded onto an SPR reader (MX-96 system; Ibis Technologies) for the kinetic analysis. CTLA-4 was injected at five increasing concentrations in a four-fold dilution series with concentrations of 1.95, 7.8, 31.25, 125, and 500 nM in running buffer (HBS-EPC with 1.0 mg/mL BSA). CTLA-4 injections were 5 minutes with a 15-minute dissociation at […] in a non-regenerative kinetic series. An injection of the goat anti-Human IgG Fc capture antibody at […] was injected at the end of the series to verify the capture level of each mAb. Binding data was double referenced by subtracting an interspot surface and a blank injection and analyzed for ka (on-rate), kd (off-rate), and KD (affinity) using the Kinetic Interaction Tool software (Carterra Inc.).

[4] = biological target: T2, His-tagged human CTLA-4 (CT4-H5229; …); assay: SPR (Carterra); remark: listed apart in the source
Description: as §3, §4, §5

[5] = biological target: T3, human CTLA-4 expressed on the cell surface (human, UniProt P16410 36-223); assay: cell-based or functional assay
[6] = biological target: T3, human CTLA-4 expressed on the cell …; assay: cell-based or functional assay; remark: listed apart in the source
[7] = biological target: T2, His-tagged human CTLA-4 (CT4-H5229; …); assay: SPR (Carterra), soluble human CTLA-4
[8] = biological target: T1, His-tagged cynomolgus CTLA-4 …; assay: BLI (Octet), single antigen concentration
Description: (§6) Table 23. In vitro characterization of scFvs reformatted as full-length antibodies. kon, koff, and KD of the indicated CTLA-4 mAbs for soluble human CTLA-4 was determined by SPR (Carterra). Geometric MFI of the indicated CTLA-4 mAbs bound to CTLA-4⁺ or CD27⁺ CHO cells as detected by a secondary human IgG antibody and flow cytometry. Affinity (KD) of the indicated CTLA-4 mAbs for soluble cynomolgus CTLA-4 was determined by a single antigen concentration BLI measurement (Octet). […] Due to constraints on sample size in each Promega bioassay kit, this set of aCTLA-4 mAbs was analyzed using multiple plates (plate letters correspond to Plate A-D in FIG. 20D).
Antibodies were loaded at 5 μg/mL onto Protein A biosensors that were dipped into 80 nM antigen, and kinetic constants were calculated using a monovalent model.

[9] = biological target: T3, human CTLA-4 expressed on the cell …; assay: flow cytometry, 10 µg/mL mAb, geometric MFI
Description: as §6
(§7) To determine if the CTLA-4 mAbs bound the appropriate antigen expressed on the surface of mammalian cells, CHO cell lines stably expressing human CTLA-4 or an irrelevant antigen (CD27) were generated. Cells (0.5×10⁶ each cell line) were combined and washed with MACS buffer (Dulbecco's Phosphate Buffered Saline [DPBS], with 0.5% bovine serum albumin [BSA], and 2 mM ethylenediaminetetraacetic acid [EDTA]). The cells were incubated with 10 μg/mL anti-CTLA-4 for 30 min at 4° C., then excess, unbound mAbs were removed by washing twice with MACS buffer. The cells were then stained with PE-conjugated anti-Human IgG Fc antibody (clone M1310G05, BioLegend 410720, San Diego, Calif., USA) to detect bound anti-CTLA-4 and with fluorescein isothiocyanate (FITC)-conjugated anti-CD27 (clone 0323, BioLegend 302806, San Diego, Calif., USA) to distinguish the cells expressing the irrelevant antigen. Cells were washed twice with MACS buffer, fixed with 4% paraformaldehyde fixation buffer (BioLegend 420801, San Diego, Calif., USA) for 20 minutes at room temperature and washed twice more with MACS buffer.

[10] = biological target: T4, CD27 on CHO cells (UniProt P26842 20-260, limits assumed); assay: flow cytometry, 10 µg/mL mAb, geometric MFI
T4 construct: whole, on cells; also called CD27+ CHO cells; irrelevant antigen (CD27)
Description: as §6, §7

[11] = biological target: T4, CD27 on CHO cells; assay: flow cytometry, mixed CTLA-4+ and CD27+ CHO cells
Description: To determine if the CTLA-4 mAbs bound the appropriate antigen expressed on the surface of mammalian cells, CHO cell lines stably expressing human CTLA-4 or an irrelevant antigen (CD27) were generated. Cells (0.5×10⁶ each cell line) were combined and washed with MACS buffer (Dulbecco's Phosphate Buffered Saline [DPBS], with 0.5% bovine serum albumin [BSA], and 2 mM ethylenediaminetetraacetic acid [EDTA]). The cells were incubated with 10 μg/mL anti-CTLA-4 for 30 min at 4° C., then excess, unbound mAbs were removed by washing twice with MACS buffer. The cells were then stained with PE-conjugated anti-Human IgG Fc antibody (clone M1310G05, BioLegend 410720, San Diego, Calif., USA) to detect bound anti-CTLA-4 and with fluorescein isothiocyanate (FITC)-conjugated anti-CD27 (clone 0323, BioLegend 302806, San Diego, Calif., USA) to distinguish the cells expressing the irrelevant antigen. Cells were washed twice with MACS buffer, fixed with 4% paraformaldehyde fixation buffer (BioLegend 420801, San Diego, Calif., USA) for 20 minutes at room temperature and washed twice more with MACS buffer. […] Binding of mAbs to CTLA-4 on the cell surface was determined using LSR II (BD Biosciences, San Jose, Calif., USA) or CytoFLEX LX (Beckman Coulter, Brea. Calif., USA) flow cytometers and analyzed using FlowJo (v10.6.1, BD Biosciences, San Jose, Calif., USA).

[12] = biological target: T5, rcmCTLA-4-Fc from Sino Biological (90213-C02H) (cynomolgus monkey); assay: ELISA, against R&D rhCTLA-4 Fc on the same plate
T5 construct: also called Sino Biological rcmCTLA-4 Fc
Description: (§8) Recombinant human CTLA-4-Fc (rhCTLA-4) from R&D Systems (7268-CT-100, FIGS. 36A-36C) was coated at 1 ug/mL, on the other half of each of the plates. […] RhCTLA-4-Fc (ACROBiosystems, CT4-H5229, FIGS. 36D-E) was coated at 1 ug/mL, on the other half of each of these plates. After coating, the plates were incubated overnight at 4° C.
(§9) The following day, the plates were blocked with 5% milk in PBST for 1 hour on a plate shaker at room temperature. […] Excess, unbound mAbs were removed by washing with PBST. Bound mAbs were then detected with an HRP-conjugated anti-kappa light chain antibody (0.5 ug/ml, Southern Biotech 2060-50). After incubation on a plate shaker for 1 hour at room temperature and washing, the plates were developed with TMB substrate. After sufficient signal was achieved, 1 N hydrochloric acid was added to stop development. Absorbance at 450 nm was read using a Spectramax i3x plate reader (Molecular Devices). EC50 values were calculated by plotting absorbance vs. the log of concentration using Prism (GraphPad).

[13] = biological target: T6, rcmCTLA-4-Fc from ACROBiosystems (CT4-C5256) (cynomolgus monkey); assay: ELISA, against R&D rhCTLA-4 Fc on the same plate
T6 construct: also called ACROBiosystems rcmCTLA-4 Fc; ACROBiosystems cCTLA-4 Fc
Description: as §8, §9

T1 sequence (G7PL88 entry or part of it limits assumed, form in doubt): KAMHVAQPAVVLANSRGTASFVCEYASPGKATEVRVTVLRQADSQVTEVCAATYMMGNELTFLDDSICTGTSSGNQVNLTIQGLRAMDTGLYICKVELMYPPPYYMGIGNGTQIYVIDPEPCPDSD
T2 sequence (P16410 36-161 limits assumed): as the sequence (G7PL88 entry or part of it limits assumed, form in doubt) above, with N14S, T18I, M106L counted along it
Sequence of mouse CTLA-4 (P09793 36-161 limits assumed): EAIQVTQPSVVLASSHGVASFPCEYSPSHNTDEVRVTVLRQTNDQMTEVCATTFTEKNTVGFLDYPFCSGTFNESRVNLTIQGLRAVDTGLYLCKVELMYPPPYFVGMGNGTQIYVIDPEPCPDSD
T4 sequence (P26842 20-260 limits assumed): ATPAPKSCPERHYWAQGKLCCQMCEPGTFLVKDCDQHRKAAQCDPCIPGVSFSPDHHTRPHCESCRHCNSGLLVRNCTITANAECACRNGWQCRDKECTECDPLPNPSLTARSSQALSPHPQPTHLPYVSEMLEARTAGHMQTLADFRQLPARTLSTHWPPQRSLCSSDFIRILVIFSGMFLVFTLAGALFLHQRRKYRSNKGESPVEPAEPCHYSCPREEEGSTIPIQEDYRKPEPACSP
T3 sequence (P16410 36-223 limits assumed): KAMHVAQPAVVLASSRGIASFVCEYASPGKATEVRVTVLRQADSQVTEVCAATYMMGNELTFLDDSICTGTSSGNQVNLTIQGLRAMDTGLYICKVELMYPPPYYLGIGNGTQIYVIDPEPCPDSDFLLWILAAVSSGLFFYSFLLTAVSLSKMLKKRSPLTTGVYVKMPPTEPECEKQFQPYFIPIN

B1: antibody A1 (L1H1) (antibody, V domains shown)
VH: QVQLVESGGGVVQPGRSLRLSCAASGFTFSSFGMHWVRQAPGKGLEWVAVIWYDGRNKYYVDSVKGRFTISRDNSNNTLYLQMNSLRAEDTAVYYCARGEFFGEFFDYWGQGTLVTVSS
VL: EIVLTQSPGTLSLSPGEGATLSCRASQSFSSNYLAWYQQKPGQAPRLLIYGASSRATGIPDRFSGSGSGTDFTLTISRLEPEDFAVYYCQQYGTSPFTFGPGTKVDIK
notes: also called aCTLA-4.9; CTLA4.A1
Kd [1]: 0.96 nM
Kd [2]: 51 nM
Kd [3]: 0.77 nM
Kd [4]: 0.77 nM
koff [4]: 0.00016 s⁻¹
kon [4]: 210000 M⁻¹ s⁻¹
Promega assay % inhibition [5]: 43.2%
Promega assay antagonist (EC50, ug/mL) [5]: 0.13 µg/mL
Cell-based blocking activity EC50 [6]: 0.13 µg/mL
Cell-based blocking activity max signal (RLU) [6]: 237 RLU
Kd [7]: 0.77 nM
koff [7]: 0.00016 s⁻¹
kon [7]: 210000 M⁻¹ s⁻¹
Kd [8]: 1 nM
MFI of CTLA-4+ CHO cells [9]: 1330
MFI of CD27+ CHO cells [10]: 18.5
binding result [11]: no binding (tested: 10 µg/mL)

B2: Ipilimumab (antibody, V domains shown)
VH: QVQLVESGGGVVQPGRSLRLSCAASGFTFSSYTMHWVRQAPGKGLEWVTFISYDGNNKYYADSVKGRFTISRDNSKNTLYLQMNSLRAEDTAIYYCARTGWLGPFDYWGQGTLVTVSSA
VL: not shown
notes: also called commercial ipilimumab; Yervoy
Fold Change (EC50 of cyno divided by EC50 of human) [12]: 1.6
Fold Change (EC50 of cyno divided by EC50 of human) [13]: 1.3

B3: antibody A9 (L9H9) (antibody, V domains shown)
VH: QVQLVESGGGVVQPGRSLRLSCAASGFTFSSHGMHWVRQAPGKGLEWVAVIWYDGSNKHYADSVKGRFTISRDNSKNTLYLQMNSLRAEDTAVYYCARGDILTGYYGYWGQGTLVTVSS
VL: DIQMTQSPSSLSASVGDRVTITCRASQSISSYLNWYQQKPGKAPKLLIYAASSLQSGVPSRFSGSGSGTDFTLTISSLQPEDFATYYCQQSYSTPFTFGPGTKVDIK
notes: also called aCTLA-4.24
Kd [1]: 0.92 nM
binding result [2]: no binding (tested: 300 nM)
Kd [3]: 6.8 nM
Kd [4]: 6.8 nM
koff [4]: 0.00043 s⁻¹
kon [4]: 63000 M⁻¹ s⁻¹
Promega assay % inhibition [5]: 60.8%
Promega assay antagonist (EC50, ug/mL) [5]: 0.19 µg/mL
Cell-based blocking activity EC50 [6]: 0.19 µg/mL
Cell-based blocking activity max signal (RLU) [6]: 333 RLU
Kd [7]: 6.8 nM
koff [7]: 0.00043 s⁻¹
kon [7]: 63000 M⁻¹ s⁻¹
Kd [8]: 0.9 nM
MFI of CTLA-4+ CHO cells [9]: 934
MFI of CD27+ CHO cells [10]: 26
binding result [11]: no binding (tested: 10 µg/mL)

B4: antibody A3 (L3H3) (antibody, V domains shown)
VH: QVQLVESGGGVVQPGRSLRLSCIASGFTFSSYGMHWVRQAPGKGLEWVAVNWYDGSNKHYADSVKGRFTISRDNSKNTLYLQMNSLRAEDTAVYYCARGGVWGPYFDYWGQGTLVTVSS
VL: not shown
notes: also called aCTLA-4.2
Kd [1]: 1.2 nM
binding result [2]: no binding (tested: 300 nM)
Kd [3]: 1.5 nM
Kd [4]: 1.5 nM
koff [4]: 0.00028 s⁻¹
kon [4]: 190000 M⁻¹ s⁻¹
Promega assay % inhibition [5]: 49.8%
Promega assay antagonist (EC50, ug/mL) [5]: 0.18 µg/mL
Cell-based blocking activity EC50 [6]: 0.18 µg/mL
Cell-based blocking activity max signal (RLU) [6]: 273 RLU
Kd [7]: 1.5 nM
koff [7]: 0.00028 s⁻¹
kon [7]: 190000 M⁻¹ s⁻¹
Kd [8]: 1.2 nM
MFI of CTLA-4+ CHO cells [9]: 1050
MFI of CD27+ CHO cells [10]: 18.2
binding result [11]: no binding (tested: 10 µg/mL)
